Measurements taken from article PMC11672684 (Cell Reports, 2024).

Key:
[1] = molecular target: T1, H1 A/New Caledonia/20/1999 HA (influenza A virus A/New …); test: ELISA + BLI; conditions: both partners purified
[2] = molecular target: T1, H1 A/New Caledonia/20/1999 HA; test: cryo-EM structure; conditions: both partners purified

B1: 43_S0008 (antibody, V domains shown)
VH: QVQLVQSGAEVKKPGSSVKVSCKASGGTFRTFGISWVRQAPGQGLEWMGWIIPIIGTPNYAQKFQGRVIITADESSNTAYMELNSLKSEDTAVYYCAKEGRALLRYFDWLPLDAFDIWGQGTMVTVSS
VL: DIVLTQTPLSLPVSLGDQASISCRSSQSLVHSDGNTYLHWYLQKPGQSPKLLIYKVSNRFSGVPDRFSGSGSGTDFTLKISRVEAEDLGVYFCSQSTHVPPLTFGAGTKLELK
notes: also called mAb 43_S0008; IGHV1-69 + IGHD3-9 mAb 43_S0008; source: Expi293 cells, purified (protein A)
[1]
  binding result: binds

B2: Fab 43_S0008 (Fab, V domains shown)
VH: QVQLVQSGAEVKKPGSSVKVSCKASGGTFRTFGISWVRQAPGQGLEWMGWIIPIIGTPNYAQKFQGRVIITADESSNTAYMELNSLKSEDTAVYYCAKEGRALLRYFDWLPLDAFDIWGQGTMVTVSS
VL: DIVLTQTPLSLPVSLGDQASISCRSSQSLVHSDGNTYLHWYLQKPGQSPKLLIYKVSNRFSGVPDRFSGSGSGTDFTLKISRVEAEDLGVYFCSQSTHVPPLTFGAGTKLELK
notes: also called 43_S0008 Fab
[2]
  binding result: binds
